What all share (experiment): Ki printed in running text; no assay described
One assay concerns the target T1, caspase-1 (UniProt P29466 120-297; P29466 317-404, limits assumed).
T1 sequence (looked up) 1: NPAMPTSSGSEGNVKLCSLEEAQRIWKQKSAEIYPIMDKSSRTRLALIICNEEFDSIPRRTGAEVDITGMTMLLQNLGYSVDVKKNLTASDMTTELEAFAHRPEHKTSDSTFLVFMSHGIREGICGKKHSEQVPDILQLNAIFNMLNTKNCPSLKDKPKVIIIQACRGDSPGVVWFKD
T1 sequence (looked up) 2: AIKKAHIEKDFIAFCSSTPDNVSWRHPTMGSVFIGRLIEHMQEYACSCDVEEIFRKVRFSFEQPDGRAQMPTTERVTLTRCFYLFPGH

For a further assay, the target named is T2, caspase-10 (UniProt Q92851 220-521, limits assumed).
T2 sequence (looked up): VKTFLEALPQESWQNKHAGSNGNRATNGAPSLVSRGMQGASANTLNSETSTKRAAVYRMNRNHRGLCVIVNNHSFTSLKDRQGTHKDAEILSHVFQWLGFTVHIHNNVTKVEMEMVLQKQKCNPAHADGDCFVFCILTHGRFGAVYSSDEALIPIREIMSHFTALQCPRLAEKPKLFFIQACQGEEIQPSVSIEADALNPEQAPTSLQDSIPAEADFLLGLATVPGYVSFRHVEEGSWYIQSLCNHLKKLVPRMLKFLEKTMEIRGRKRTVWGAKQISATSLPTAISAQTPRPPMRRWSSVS

The target in a further assay is T3, caspase-7 (UniProt P55210 24-198; P55210 207-303, limits assumed).
T3 sequence (looked up) 1: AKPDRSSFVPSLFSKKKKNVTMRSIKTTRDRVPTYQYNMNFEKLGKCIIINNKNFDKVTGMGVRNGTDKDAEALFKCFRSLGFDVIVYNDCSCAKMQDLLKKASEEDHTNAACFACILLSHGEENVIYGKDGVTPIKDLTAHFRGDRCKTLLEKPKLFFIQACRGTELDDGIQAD
T3 sequence (looked up) 2: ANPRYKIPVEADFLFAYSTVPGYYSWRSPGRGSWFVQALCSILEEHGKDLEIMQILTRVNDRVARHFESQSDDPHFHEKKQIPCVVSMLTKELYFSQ

The next assay deals with T4, caspase-8 (UniProt Q14790 217-374; Q14790 385-479, limits assumed).
T4 construct: also called purified caspase-8
T4 sequence (Q14790 217-374 limits assumed, form in doubt, chain 1 of 2): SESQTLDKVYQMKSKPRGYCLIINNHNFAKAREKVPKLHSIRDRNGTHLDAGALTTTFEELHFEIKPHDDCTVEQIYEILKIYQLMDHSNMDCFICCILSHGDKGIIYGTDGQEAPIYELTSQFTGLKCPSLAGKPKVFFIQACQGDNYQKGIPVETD
T4 sequence (Q14790 385-479 limits assumed, form in doubt, chain 2 of 2): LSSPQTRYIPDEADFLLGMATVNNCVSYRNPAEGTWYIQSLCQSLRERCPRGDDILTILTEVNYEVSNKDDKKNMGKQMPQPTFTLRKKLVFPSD

Take Ac-YVAD-aldehyde [Ac-YVAD-CHO, N-(N-Ac-Tyr-Val-Ala)-3-amino-4-oxobutanoic acid]: the results for the Ki with caspase-1 and with caspase-10 were 0.6 nM and 408 nM, respectively.

Ac-DEVD-aldehyde [Ac-DEVD-CHO, N-(N-Ac-Asp-Glu-Val)-3-amino-4-oxobutanoic acid]: the Ki with caspase-1 was found to be 17 nM; with caspase-7, 1 nM; with caspase-8, 0.92 nM; in the assay with caspase-10, 12 nM.

(Values after patent US6855515 (MERCK, dated 2005).)
